Measured values published in publication PMC12529874.

What was measured:
[1] = biological target: H2O2-oxidized SOD1(C6A) (Cys111 sulfonylated) (human); assay: not stated; Zn2+-bound SOD1(WT, C6A) before and after oxidation with H2O2; Figure S7, method not given
[2] = biological target: apo-SOD1(C6A) (human); assay: as above
[3] = biological target: apo-SOD1(C6A) (human); assay: native MS; mass spectra of apo-SOD1(C6A) under native conditions, before and after treatment with H2O2; spectra normalized to the 11+ charge state of the dimer
[4] = biological target: apo-SOD1(C6A) (human); assay: SEC-MALS; gel filtration of 20 μM apo protein in MN buffer (100 mM MOPS, 50 mM NaCl, pH 7.0), before or after treatment with 10 mM H2O2, monitored at 280 nm, masses by MALS

H2O2-oxidized SOD1(C6A) (Cys111 sulfonylated) (enzyme)
stoichiometry N [1]: 2

apo-SOD1(C6A) (enzyme)
stoichiometry N [2]: 2 | stoichiometry N [3]: 2 | stoichiometry N [4]: 2
